Results published in publication PMC4931634.

Experiments:
[1] = molecular target: HIV-1 subtype C TV1.C gp120 (reference standard lot) (HIV-1 group M subtype C, strain TV1.C); assay: non-reduced SDS-PAGE; purified gp120 reference material; the dimer band disappeared completely upon reduced SDS-PAGE
[2] = molecular target: HIV-1 subtype C 1086.C gp120 (reference standard lot) (HIV-1 group M subtype C, strain 1086.C); assay: as above

Row | Substance | stoichiometry N [1] | stoichiometry N [2]
1 | HIV-1 subtype C TV1.C gp120 (reference standard lot) (natural protein) | 2 | –
2 | HIV-1 subtype C 1086.C gp120 (reference standard lot) (natural protein) | – | 2
